This test concerns the target human B7-H4 on MX-1 cells (human) (UniProt Q7Z7D3). The test is described as follows: cell-based or functional assay.

Drawing on US20230072897A1, “ANTI-B7-H4 ANTIBODY-DRUG CONJUGATE AND MEDICINAL USE THEREOF” (SHANGHAI HANSOH BIOMEDICAL CO., LTD., priority 2019, published 2023), this text covers Humanized antibody-mediated endocytosis efficiency of B7-H4 protein, 0 hour (%), Humanized antibody-mediated endocytosis efficiency of B7-H4 protein, 0.5 hour (%) and Humanized antibody-mediated endocytosis efficiency of B7-H4 protein, 2 hours (%) for one substance.

Sequence of UniProt Q7Z7D3 (Q7Z7D3 25-282): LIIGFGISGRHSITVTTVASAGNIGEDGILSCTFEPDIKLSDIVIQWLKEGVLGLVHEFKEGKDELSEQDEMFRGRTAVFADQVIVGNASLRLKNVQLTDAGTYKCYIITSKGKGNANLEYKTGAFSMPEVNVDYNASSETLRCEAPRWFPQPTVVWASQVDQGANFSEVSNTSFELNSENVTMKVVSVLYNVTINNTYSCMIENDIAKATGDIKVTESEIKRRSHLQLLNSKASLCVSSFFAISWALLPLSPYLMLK

As for IgG control (antibody), the Humanized antibody-mediated endocytosis efficiency of B7-H4 protein, 0 hour (%) was 0%; the Humanized antibody-mediated endocytosis efficiency of B7-H4 protein, 0.5 hour (%) was found to be 0.1%; the Humanized antibody-mediated endocytosis efficiency of B7-H4 protein, 2 hours (%) amounted to 0.9%.
